Source: the supplement of paper PMC9112550, “Optimization of the antimicrobial peptide Bac7 by deep mutational scanning” (BMC Biology, 2022)
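Note: peptides expressed intracellularly from a pBAD plasmid library in pooled LB shake-flask culture, induced with 0.3% L-arabinose, DNA abundance read by NGS, three biological replicates, DESeq2 with apeglm shrinkage.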

What follows are sequences tested on Escherichia coli TOP10 (assay: shrunken log2 fold change of peptide-encoding DNA abundance (4.5 h post-induction vs induction); higher = less antimicrobial activity (less host growth inhibition)). Conditions: time post-induction: 4.5 h; library: site-saturation at positions 5, 18, 19, 20.
RRIRRRPPRLPRPRPRPIRWPRP was tested, and the “shrunken log2 fold change” value was 0.0197. RRIRRRPPRLPRPRPRPITHPRP was tested, and the “shrunken log2 fold change” value was -0.287. RRIRRRPPRLPRPRPRPIVAPRP was tested, and the “shrunken log2 fold change” value was 0.174. RRIRRRPPRLPRPRPRPIYDPRP was tested, and the “shrunken log2 fold change” value was -0.0515. In the case of RRIRRRPPRLPRPRPRPKCPPRP, the “shrunken log2 fold change” value is reported as 0.278. RRIRRRPPRLPRPRPRPKFKPRP was tested, and the “shrunken log2 fold change” value was -0.046. For RRIRRRPPRLPRPRPRPKFNPRP, the “shrunken log2 fold change” value was 0.00967. With RRIRRRPPRLPRPRPRPKGPPRP the “shrunken log2 fold change” value was 0.465. For RRIRRRPPRLPRPRPRPKHCPRP, the “shrunken log2 fold change” value was 0.294. In the case of RRIRRRPPRLPRPRPRPKHSPRP, the “shrunken log2 fold change” value is reported as 0.0683. With RRIRRRPPRLPRPRPRPKKEPRP the “shrunken log2 fold change” value was -0.0417. For RRIRRRPPRLPRPRPRPKKMPRP, the “shrunken log2 fold change” value was 0.318. RRIRRRPPRLPRPRPRPKKRPRP was tested, and the “shrunken log2 fold change” value was 0.976. With RRIRRRPPRLPRPRPRPKKTPRP the “shrunken log2 fold change” value was -0.0163. For RRIRRRPPRLPRPRPRPKKWPRP, the “shrunken log2 fold change” value was 0.114. In the case of RRIRRRPPRLPRPRPRPKLAPRP, the “shrunken log2 fold change” value is reported as 0.333. RRIRRRPPRLPRPRPRPKLHPRP was tested, and the “shrunken log2 fold change” value was 0.167. RRIRRRPPRLPRPRPRPKMKPRP was tested, and the “shrunken log2 fold change” value was 0.316. With RRIRRRPPRLPRPRPRPKMTPRP the “shrunken log2 fold change” value was 0.24. In the case of RRIRRRPPRLPRPRPRPKNLPRP, the “shrunken log2 fold change” value is reported as -0.104. With RRIRRRPPRLPRPRPRPKNQPRP the “shrunken log2 fold change” value was 0.173. For RRIRRRPPRLPRPRPRPKQIPRP, the “shrunken log2 fold change” value was 0.289. In the case of RRIRRRPPRLPRPRPRPKSIPRP, the “shrunken log2 fold change” value is reported as -0.0792. RRIRRRPPRLPRPRPRPKSKPRP was tested, and the “shrunken log2 fold change” value was 0.165. In the case of RRIRRRPPRLPRPRPRPKTCPRP, the “shrunken log2 fold change” value is reported as 0.265. In the case of RRIRRRPPRLPRPRPRPKTNPRP, the “shrunken log2 fold change” value is reported as 0.221. In the case of RRIRRRPPRLPRPRPRPKTSPRP, the “shrunken log2 fold change” value is reported as 2.22. For RRIRRRPPRLPRPRPRPKVIPRP, the “shrunken log2 fold change” value was -0.256. RRIRRRPPRLPRPRPRPKWAPRP was tested, and the “shrunken log2 fold change” value was 0.0296. RRIRRRPPRLPRPRPRPKWIPRP was tested, and the “shrunken log2 fold change” value was -0.096. With RRIRRRPPRLPRPRPRPKWNPRP the “shrunken log2 fold change” value was 0.0781. RRIRRRPPRLPRPRPRPKYMPRP was tested, and the “shrunken log2 fold change” value was -0.444. For RRIRRRPPRLPRPRPRPLAYPRP, the “shrunken log2 fold change” value was -0.00715. RRIRRRPPRLPRPRPRPLCAPRP was tested, and the “shrunken log2 fold change” value was 0.646. With RRIRRRPPRLPRPRPRPLCTPRP the “shrunken log2 fold change” value was 0.354. In the case of RRIRRRPPRLPRPRPRPLCVPRP, the “shrunken log2 fold change” value is reported as 0.537. In the case of RRIRRRPPRLPRPRPRPLDKPRP, the “shrunken log2 fold change” value is reported as -0.152. For RRIRRRPPRLPRPRPRPLEEPRP, the “shrunken log2 fold change” value was 0.597. For RRIRRRPPRLPRPRPRPLGCPRP, the “shrunken log2 fold change” value was 0.166. In the case of RRIRRRPPRLPRPRPRPLGEPRP, the “shrunken log2 fold change” value is reported as 0.144. RRIRRRPPRLPRPRPRPLGYPRP was tested, and the “shrunken log2 fold change” value was 0.26. In the case of RRIRRRPPRLPRPRPRPLHCPRP, the “shrunken log2 fold change” value is reported as 0.0886. RRIRRRPPRLPRPRPRPLHKPRP was tested, and the “shrunken log2 fold change” value was -0.191. With RRIRRRPPRLPRPRPRPLIHPRP the “shrunken log2 fold change” value was 0.125. In the case of RRIRRRPPRLPRPRPRPLIKPRP, the “shrunken log2 fold change” value is reported as -0.0254. RRIRRRPPRLPRPRPRPLIMPRP was tested, and the “shrunken log2 fold change” value was -0.325. In the case of RRIRRRPPRLPRPRPRPLIQPRP, the “shrunken log2 fold change” value is reported as 0.256. For RRIRRRPPRLPRPRPRPLKVPRP, the “shrunken log2 fold change” value was 0.0966. RRIRRRPPRLPRPRPRPLLKPRP was tested, and the “shrunken log2 fold change” value was 0.415. For RRIRRRPPRLPRPRPRPLLNPRP, the “shrunken log2 fold change” value was -0.00444. In the case of RRIRRRPPRLPRPRPRPLPCPRP, the “shrunken log2 fold change” value is reported as -0.0345. RRIRRRPPRLPRPRPRPLPMPRP was tested, and the “shrunken log2 fold change” value was 0.541. With RRIRRRPPRLPRPRPRPLQFPRP the “shrunken log2 fold change” value was 0.313. In the case of RRIRRRPPRLPRPRPRPLQRPRP, the “shrunken log2 fold change” value is reported as 0.969. With RRIRRRPPRLPRPRPRPLRTPRP the “shrunken log2 fold change” value was 1.41. RRIRRRPPRLPRPRPRPLSGPRP was tested, and the “shrunken log2 fold change” value was 0.379. RRIRRRPPRLPRPRPRPLTFPRP was tested, and the “shrunken log2 fold change” value was 2.56. In the case of RRIRRRPPRLPRPRPRPLVLPRP, the “shrunken log2 fold change” value is reported as 0.0551. For RRIRRRPPRLPRPRPRPLYWPRP, the “shrunken log2 fold change” value was 0.0153. RRIRRRPPRLPRPRPRPMALPRP was tested, and the “shrunken log2 fold change” value was 5.63e-05. In the case of RRIRRRPPRLPRPRPRPMCGPRP, the “shrunken log2 fold change” value is reported as -0.0233. RRIRRRPPRLPRPRPRPMDRPRP was tested, and the “shrunken log2 fold change” value was 0.118. In the case of RRIRRRPPRLPRPRPRPMDSPRP, the “shrunken log2 fold change” value is reported as -0.0307. With RRIRRRPPRLPRPRPRPMEDPRP the “shrunken log2 fold change” value was 0.0525. RRIRRRPPRLPRPRPRPMEYPRP was tested, and the “shrunken log2 fold change” value was -0.0405. For RRIRRRPPRLPRPRPRPMFPPRP, the “shrunken log2 fold change” value was 0.118. In the case of RRIRRRPPRLPRPRPRPMGKPRP, the “shrunken log2 fold change” value is reported as 0.35. For RRIRRRPPRLPRPRPRPMGQPRP, the “shrunken log2 fold change” value was 0.267. In the case of RRIRRRPPRLPRPRPRPMHFPRP, the “shrunken log2 fold change” value is reported as 0.0461. For RRIRRRPPRLPRPRPRPMKKPRP, the “shrunken log2 fold change” value was -0.0239. In the case of RRIRRRPPRLPRPRPRPMLEPRP, the “shrunken log2 fold change” value is reported as 0.0718. For RRIRRRPPRLPRPRPRPMLPPRP, the “shrunken log2 fold change” value was -0.000603. In the case of RRIRRRPPRLPRPRPRPMMGPRP, the “shrunken log2 fold change” value is reported as 0.235. RRIRRRPPRLPRPRPRPMMPPRP was tested, and the “shrunken log2 fold change” value was 0.135. RRIRRRPPRLPRPRPRPMMQPRP was tested, and the “shrunken log2 fold change” value was 0.112. In the case of RRIRRRPPRLPRPRPRPMNDPRP, the “shrunken log2 fold change” value is reported as 0.338. RRIRRRPPRLPRPRPRPMPAPRP was tested, and the “shrunken log2 fold change” value was 0.203. RRIRRRPPRLPRPRPRPMPQPRP was tested, and the “shrunken log2 fold change” value was 0.376. In the case of RRIRRRPPRLPRPRPRPMQPPRP, the “shrunken log2 fold change” value is reported as 0.0874. RRIRRRPPRLPRPRPRPMRGPRP was tested, and the “shrunken log2 fold change” value was 1.38. With RRIRRRPPRLPRPRPRPMTEPRP the “shrunken log2 fold change” value was 0.0575. For RRIRRRPPRLPRPRPRPMTPPRP, the “shrunken log2 fold change” value was 0.749. RRIRRRPPRLPRPRPRPMTQPRP was tested, and the “shrunken log2 fold change” value was 0.176. For RRIRRRPPRLPRPRPRPMVIPRP, the “shrunken log2 fold change” value was -0.189. For RRIRRRPPRLPRPRPRPNARPRP, the “shrunken log2 fold change” value was 0.35. RRIRRRPPRLPRPRPRPNDSPRP was tested, and the “shrunken log2 fold change” value was -0.286. For RRIRRRPPRLPRPRPRPNEVPRP, the “shrunken log2 fold change” value was -0.0332. For RRIRRRPPRLPRPRPRPNFAPRP, the “shrunken log2 fold change” value was 0.0508. RRIRRRPPRLPRPRPRPNFKPRP was tested, and the “shrunken log2 fold change” value was 0.092. For RRIRRRPPRLPRPRPRPNFYPRP, the “shrunken log2 fold change” value was -0.124. For RRIRRRPPRLPRPRPRPNGLPRP, the “shrunken log2 fold change” value was 0.0125. In the case of RRIRRRPPRLPRPRPRPNIKPRP, the “shrunken log2 fold change” value is reported as 0.153. For RRIRRRPPRLPRPRPRPNINPRP, the “shrunken log2 fold change” value was -0.156. RRIRRRPPRLPRPRPRPNKCPRP was tested, and the “shrunken log2 fold change” value was -0.634. For RRIRRRPPRLPRPRPRPNKWPRP, the “shrunken log2 fold change” value was 0.0315. With RRIRRRPPRLPRPRPRPNMHPRP the “shrunken log2 fold change” value was 0.0848. For RRIRRRPPRLPRPRPRPNMKPRP, the “shrunken log2 fold change” value was 0.069. With RRIRRRPPRLPRPRPRPNMLPRP the “shrunken log2 fold change” value was -0.061. In the case of RRIRRRPPRLPRPRPRPNNCPRP, the “shrunken log2 fold change” value is reported as 0.129. With RRIRRRPPRLPRPRPRPNNWPRP the “shrunken log2 fold change” value was 0.612. For RRIRRRPPRLPRPRPRPNPIPRP, the “shrunken log2 fold change” value was 0.208. In the case of RRIRRRPPRLPRPRPRPNPLPRP, the “shrunken log2 fold change” value is reported as 0.269. For RRIRRRPPRLPRPRPRPNTNPRP, the “shrunken log2 fold change” value was -0.22. For RRIRRRPPRLPRPRPRPNTPPRP, the “shrunken log2 fold change” value was 0.0411. For RRIRRRPPRLPRPRPRPNYNPRP, the “shrunken log2 fold change” value was -0.556. RRIRRRPPRLPRPRPRPPAAPRP was tested, and the “shrunken log2 fold change” value was 0.947. For RRIRRRPPRLPRPRPRPPCPPRP, the “shrunken log2 fold change” value was 0.641. With RRIRRRPPRLPRPRPRPPDVPRP the “shrunken log2 fold change” value was 0.474. For RRIRRRPPRLPRPRPRPPFTPRP, the “shrunken log2 fold change” value was 0.0961.
